These results are taken from publication PMC4571279 (Nature Communications, 2015).

For assay [1], the target named is T1, MERS-CoV Eng1 receptor-binding domain (RBD) (MERS-CoV Eng1, UniProt K9N5Q8).
T1 construct: source: GnTi-/- cells, purified (Ni-NTA, size exclusion chromatography in 1x PBS)
Briefly: crystal structure. Particulars: both partners purified.

Assay [2] addresses T2, recombinant MERS-CoV S1 protein (MERS-CoV, isolate EMC/2012 (strain of …, UniProt K0BRG7)).
T2 construct: source: bought: Sino Biological Inc
Briefly: ELISA. Particulars: both partners purified. (In general: ELISA stands for enzyme-linked immunosorbent assay.)

T1 sequence (K9N5Q8 367-601): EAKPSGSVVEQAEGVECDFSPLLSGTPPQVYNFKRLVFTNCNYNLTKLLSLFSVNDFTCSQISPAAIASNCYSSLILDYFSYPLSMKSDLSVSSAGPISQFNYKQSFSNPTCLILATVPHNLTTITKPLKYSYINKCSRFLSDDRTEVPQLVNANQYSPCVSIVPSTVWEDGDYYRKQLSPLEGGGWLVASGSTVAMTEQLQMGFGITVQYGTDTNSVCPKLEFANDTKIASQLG

B1: Fab m336 (antigen-binding fragment of antibody m336, prepared by Lys-C digestion) (Fab, V domains shown)
VH: QVQLVQSGAEVKKPGSSVKVSCKASGGTFSSYAISWVRQAPGQGLEWMGGIIPIFGTASYAQKFQGRVTITADKSTSTAYMELSSLRSEDTAVYYCARVGYCSSTSCNRGAFDIWGQGTMVTVSS
VL: DIQLTQSPSSLSASVGDRVTITCRASQGIRNDLGWYQQKPGKAPKLLIYAASSLQSGVPSRFSGSGSGTDFTLTISSLQPEDFATYYCQQLNSYPLTFGGGTKVEIK
notes: also called m336 Fab
Turning to B1, in assay [1], the binding result is “binds”.

B2: IgG1 m336 (antibody, V domains shown)
VH: QVQLVQSGAEVKKPGSSVKVSCKASGGTFSSYAISWVRQAPGQGLEWMGGIIPIFGTASYAQKFQGRVTITADKSTSTAYMELSSLRSEDTAVYYCARVGYCSSTSCNRGAFDIWGQGTMVTVSS
VL: DIQLTQSPSSLSASVGDRVTITCRASQGIRNDLGWYQQKPGKAPKLLIYAASSLQSGVPSRFSGSGSGTDFTLTISSLQPEDFATYYCQQLNSYPLTFGGGTKVEIK
notes: IgG1; also called wild-type m336; copies: 2 + 2
Consider B2, for which the binding result in assay [2] is on record as “binds”.

B3: Fab m336 (from the m336 Fab-expressing plasmid), wild type (Fab, V domains shown)
VH: QVQLVQSGAEVKKPGSSVKVSCKASGGTFSSYAISWVRQAPGQGLEWMGGIIPIFGTASYAQKFQGRVTITADKSTSTAYMELSSLRSEDTAVYYCARVGYCSSTSCNRGAFDIWGQGTMVTVSS
VL: DIQLTQSPSSLSASVGDRVTITCRASQGIRNDLGWYQQKPGKAPKLLIYAASSLQSGVPSRFSGSGSGTDFTLTISSLQPEDFATYYCQQLNSYPLTFGGGTKVEIK
notes: also called wild-type m336
Consider B3, for which the binding result in assay [2] is “binds”.
